Here are results for 1 molecule from patent publication US20160289316A1 (STOWERS INSTITUTE FOR MEDICAL RESEARCH, published 2016).

This assay deals with T1, LRP6 G171V (human, UniProt O75197 32-1384, limits assumed).
T1 construct: The parent protein is printed inconsistently (LRP6 in the legend, LRP5 in the text); also called Human HBM G171V mutation; LRP5, G171V
T1 sequence (looked up): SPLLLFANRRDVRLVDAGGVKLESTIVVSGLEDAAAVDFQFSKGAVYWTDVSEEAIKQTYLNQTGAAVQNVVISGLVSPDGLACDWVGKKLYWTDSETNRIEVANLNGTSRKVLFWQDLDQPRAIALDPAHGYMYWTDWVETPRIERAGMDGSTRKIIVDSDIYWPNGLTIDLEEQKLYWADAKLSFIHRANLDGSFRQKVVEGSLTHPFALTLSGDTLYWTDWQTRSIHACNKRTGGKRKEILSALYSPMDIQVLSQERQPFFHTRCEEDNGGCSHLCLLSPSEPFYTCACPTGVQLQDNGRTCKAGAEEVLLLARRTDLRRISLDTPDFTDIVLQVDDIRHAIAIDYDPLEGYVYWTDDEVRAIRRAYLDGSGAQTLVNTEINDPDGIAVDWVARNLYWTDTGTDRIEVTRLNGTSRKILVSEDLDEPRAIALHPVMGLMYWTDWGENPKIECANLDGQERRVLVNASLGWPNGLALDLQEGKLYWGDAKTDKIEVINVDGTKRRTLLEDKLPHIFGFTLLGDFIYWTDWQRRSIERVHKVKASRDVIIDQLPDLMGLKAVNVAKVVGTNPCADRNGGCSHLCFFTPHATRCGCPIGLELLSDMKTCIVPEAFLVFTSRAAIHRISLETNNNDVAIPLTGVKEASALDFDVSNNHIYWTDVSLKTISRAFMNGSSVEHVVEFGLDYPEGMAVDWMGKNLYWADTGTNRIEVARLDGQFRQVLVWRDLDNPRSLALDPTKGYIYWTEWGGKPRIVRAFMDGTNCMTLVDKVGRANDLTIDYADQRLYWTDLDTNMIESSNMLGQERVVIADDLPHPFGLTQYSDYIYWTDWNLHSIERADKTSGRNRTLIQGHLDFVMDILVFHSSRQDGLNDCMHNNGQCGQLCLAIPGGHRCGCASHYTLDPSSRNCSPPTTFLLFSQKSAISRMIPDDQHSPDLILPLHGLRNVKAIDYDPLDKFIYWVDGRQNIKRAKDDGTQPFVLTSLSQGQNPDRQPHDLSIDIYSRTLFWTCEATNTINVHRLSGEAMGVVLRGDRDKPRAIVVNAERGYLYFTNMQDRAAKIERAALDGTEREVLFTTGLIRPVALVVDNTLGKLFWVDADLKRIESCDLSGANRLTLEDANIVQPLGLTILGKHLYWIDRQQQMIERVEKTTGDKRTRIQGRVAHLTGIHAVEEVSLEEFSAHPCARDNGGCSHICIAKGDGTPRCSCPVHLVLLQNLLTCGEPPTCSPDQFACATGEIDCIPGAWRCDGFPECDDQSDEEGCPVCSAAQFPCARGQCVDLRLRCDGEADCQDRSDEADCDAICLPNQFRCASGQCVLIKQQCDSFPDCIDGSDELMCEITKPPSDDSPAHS
Nature of the assay: immunoprecipitation, anti-Flag M2 affinity gel (FIG. 2H). Here is the method:
A […] dish of 293 cells was transfected with 10 ug of LRP5, LRP6, SOST or Wise, using Fugene 6 (Roche). pCS2+LRP5 contains the extracellular portion of the human sequence between EcoRI-Xbal. pCS2+SOST contain the whole reading frame and has been modified at the 3′ end to have a kozak sequence and Flag tag, Wise-Flag, and LRP6-IgG-FC are described in Itasaki et al. (2003). pCS2+ with an Ig-FC insert is the vector control. The supernatants were collected on day 1, day 2, and day 3. The supernatant was concentrated through an appropriate molecular weight Amicon ultra (Millipore) spin column. A protein concentration was taken on the concentrated supernatants, and 50 ug of each sample was used in each IP. Anti-Flag M2 affinity gel (Sigma) was used for the Wise and SOSTIPs.

B1: SOST-Flag (ligand, mouse, UniProt Q99P68 24-211, looked up)
chain: QGWQAFRNDATEVIPGLGEYPEPPPENNQTMNRAENGGRPPHHPYDAKDVSEYSCRELHYTRFLTDGPCRSAKPVTELVCSGQCGPARLLPNAIGRVKWWRPNGPDFRCIPDRYRAQRVQLLCPGGAAPRSRKVRLVASCKCKRLTRFHNQSELKDFGPETARPQKGRKPRPGARGAKANQAELENAY
notes: mature; This entry was not used because neither its species nor its tie to the assay construct is stated; also called pCS2+SOST; not shown: Flag tag at the 3' end of the reading frame
Take B1: the binding result is “no binding”.
